Measured values from patent publication US9138467.

What was measured:
[1] = target: M. gallisepticum affinity purified antigen; experiment: lectin affinity chromatography, protein in eluate as percent of load
[2] = target: M. gallisepticum affinity purified antigen; experiment: lectin affinity chromatography, protein in eluate (about 1.5 mg loaded)

Substance “Concanavalin A (immobilized Con A column) (from UniProt P02866 30-281)” has a % recovery in Con A elution [1] of 5.7% and a Total protein (mg) eluted from Con A column [2] of 0.088 mg.
